Results from paper doi:10.1101/2025.08.01.668158.
Changes are numbered by the printed parent chain.

T1: SpDis3L2(D461N)ΔN168 (Schizosaccharomyces pombe, UniProt O14040 168-927, D461N)
T1 sequence: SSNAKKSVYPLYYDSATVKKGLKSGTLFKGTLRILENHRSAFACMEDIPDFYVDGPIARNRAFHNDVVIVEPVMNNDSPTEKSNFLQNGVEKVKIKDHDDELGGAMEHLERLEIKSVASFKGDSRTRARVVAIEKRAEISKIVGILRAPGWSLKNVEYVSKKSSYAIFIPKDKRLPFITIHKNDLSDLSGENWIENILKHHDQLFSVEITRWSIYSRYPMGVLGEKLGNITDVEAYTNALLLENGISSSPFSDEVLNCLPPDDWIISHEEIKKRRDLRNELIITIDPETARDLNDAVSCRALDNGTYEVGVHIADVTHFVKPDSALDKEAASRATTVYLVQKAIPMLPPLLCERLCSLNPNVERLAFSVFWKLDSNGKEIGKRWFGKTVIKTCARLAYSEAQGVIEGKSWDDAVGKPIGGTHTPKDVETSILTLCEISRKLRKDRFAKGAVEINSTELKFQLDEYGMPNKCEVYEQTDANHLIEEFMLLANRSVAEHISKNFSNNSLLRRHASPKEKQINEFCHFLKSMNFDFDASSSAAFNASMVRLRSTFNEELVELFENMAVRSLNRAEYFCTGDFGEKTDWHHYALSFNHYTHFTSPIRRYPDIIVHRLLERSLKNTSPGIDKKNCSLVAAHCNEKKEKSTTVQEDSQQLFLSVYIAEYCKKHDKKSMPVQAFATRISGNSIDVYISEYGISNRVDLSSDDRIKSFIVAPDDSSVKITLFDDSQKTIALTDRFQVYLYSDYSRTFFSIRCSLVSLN

T2: SpDis3L2 A756R (Schizosaccharomyces pombe, UniProt O14040 1-927, A756R)
T2 sequence: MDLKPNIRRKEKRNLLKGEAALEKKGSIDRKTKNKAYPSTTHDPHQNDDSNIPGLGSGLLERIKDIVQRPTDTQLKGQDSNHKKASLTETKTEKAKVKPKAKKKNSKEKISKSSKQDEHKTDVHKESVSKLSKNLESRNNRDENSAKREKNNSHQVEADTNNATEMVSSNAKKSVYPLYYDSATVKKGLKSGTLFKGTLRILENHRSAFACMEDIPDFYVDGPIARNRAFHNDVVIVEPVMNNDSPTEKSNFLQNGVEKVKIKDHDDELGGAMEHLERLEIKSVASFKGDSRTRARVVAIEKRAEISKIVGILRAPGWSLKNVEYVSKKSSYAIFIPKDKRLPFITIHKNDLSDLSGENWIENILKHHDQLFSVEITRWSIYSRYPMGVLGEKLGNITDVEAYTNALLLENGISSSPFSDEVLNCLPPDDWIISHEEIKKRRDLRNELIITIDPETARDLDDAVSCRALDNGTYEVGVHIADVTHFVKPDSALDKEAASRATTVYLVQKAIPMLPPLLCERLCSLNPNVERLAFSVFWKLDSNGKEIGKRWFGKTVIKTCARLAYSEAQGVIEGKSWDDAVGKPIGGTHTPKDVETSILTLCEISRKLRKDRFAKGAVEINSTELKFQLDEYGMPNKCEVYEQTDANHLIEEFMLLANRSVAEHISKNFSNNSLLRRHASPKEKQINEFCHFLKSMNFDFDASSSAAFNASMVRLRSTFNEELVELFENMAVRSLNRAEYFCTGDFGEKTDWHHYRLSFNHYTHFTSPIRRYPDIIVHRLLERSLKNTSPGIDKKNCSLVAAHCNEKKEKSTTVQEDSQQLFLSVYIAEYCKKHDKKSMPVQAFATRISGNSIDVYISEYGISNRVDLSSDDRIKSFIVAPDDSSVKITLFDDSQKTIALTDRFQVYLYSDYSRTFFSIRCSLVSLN

T3: SpDis3L2 WT (Schizosaccharomyces pombe, UniProt O14040 1-927)
T3 sequence: T2 sequence with R756A

B1: U13 (ssRNA)
RNA: UUUUUUUUUUUUU
B2: Adh1-U16 (ssRNA)
RNA: GUUUUGUAUAGAAAUCAAUGUUUUUUUUUUUUUUUU

Legend:
SpDis3L2(D461N)ΔN168 = target: T1, SpDis3L2(D461N)ΔN168; experiment: X-ray crystallography
SpDis3L2 A756R = target: T2, SpDis3L2 A756R; experiment: EMSA
SpDis3L2 WT = target: T3, SpDis3L2 WT; experiment: EMSA

Binder | binding result (SpDis3L2(D461N)ΔN168) | binding result (SpDis3L2 A756R) | binding result (SpDis3L2 WT)
B1 | binds |  | 
B2 |  | binds | binds
